Biological target: Pseudomonas aeruginosa QatC with C-terminal 6xHis tag (Pseudomonas aeruginosa)
Test: mass photometry; Refeyn TwoMP; purified protein diluted to 200 nM in gel filtration buffer (20 mM HEPES-KOH pH 7.5, 250 mM KCl, 1 mM TCEP), 1 uL mixed into a 16 uL drop; QatA in the absence of DNA

## Pseudomonas aeruginosa QatB (natural protein)
  stoichiometry N: 1

From paper PMC13279940
